Test [1] addresses T1, recombinant human MASP1 active protease (amino acids 297-699, C-terminal His Tag) (human, UniProt P48740 297-699).
T1 sequence: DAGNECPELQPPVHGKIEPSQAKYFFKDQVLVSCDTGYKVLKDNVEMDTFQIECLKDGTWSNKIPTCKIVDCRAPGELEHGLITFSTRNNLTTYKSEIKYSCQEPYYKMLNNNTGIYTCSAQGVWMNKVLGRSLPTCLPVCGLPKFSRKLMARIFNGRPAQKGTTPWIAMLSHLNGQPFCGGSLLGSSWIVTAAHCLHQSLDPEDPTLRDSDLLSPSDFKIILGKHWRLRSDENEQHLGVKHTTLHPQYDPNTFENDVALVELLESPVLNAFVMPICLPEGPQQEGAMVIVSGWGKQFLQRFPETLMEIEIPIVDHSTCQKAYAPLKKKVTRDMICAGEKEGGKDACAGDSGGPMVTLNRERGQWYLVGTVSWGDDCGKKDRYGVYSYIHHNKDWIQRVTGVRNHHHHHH
Briefly: cell-based or functional assay.

Test [2] deals with recombinant human MASP2 active protease (amino acids 297-686, C-terminal His Tag) (human, UniProt O00187 297-686). Briefly: cell-based or functional assay.
Chain of recombinant human MASP2 active protease (amino acids 297-686, C-terminal His Tag) (O00187 other isoform, or with tags, fused parts or gaps limits assumed): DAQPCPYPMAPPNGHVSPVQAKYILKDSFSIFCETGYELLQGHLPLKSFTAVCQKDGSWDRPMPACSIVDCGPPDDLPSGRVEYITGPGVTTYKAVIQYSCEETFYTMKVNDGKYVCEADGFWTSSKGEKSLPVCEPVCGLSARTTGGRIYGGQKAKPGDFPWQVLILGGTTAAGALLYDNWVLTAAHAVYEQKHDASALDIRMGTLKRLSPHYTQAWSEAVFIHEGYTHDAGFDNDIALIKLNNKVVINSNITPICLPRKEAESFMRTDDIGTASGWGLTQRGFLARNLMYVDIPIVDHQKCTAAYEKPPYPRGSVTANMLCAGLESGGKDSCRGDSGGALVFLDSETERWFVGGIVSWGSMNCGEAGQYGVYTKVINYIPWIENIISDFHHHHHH

Bridge positions count the residues as written; N and C are the ends. Square brackets hold non-standard residues; d marks the D form. Ends that are not written are not given here. * marks the point of attachment. (Trifluoro)l/L = 5,5,5-trifluoro-DL-leucine; Oic = O=C(O)[C@@H]1C[C@@H]2CCCC[C@@H]2N1; Cyclobutylacetic = O=C(CC1CCC1)*; Hyp = O=C(O)[C@@H]1C[C@@H](O)CN1; NMeI = CC[C@H](C)[C@H](NC)C(=O)O; tBuAla = CC(C)(C)C[C@H](N)C(=O)O; Pen = CC(C)(S)[C@H](N)C(=O)O; NMeC = CN[C@@H](CS)C(=O)O; Orn = NCCC[C@H](N)C(=O)O; Aib = CC(C)(N)C(=O)O; Ahx = NCCCCCC(=O)O; Sar = CNCC(=O)O

B1: Example 381: ((N-Me)G)-(Orn)-(Orn)-(Orn)-IC+SRS-((tBu)A)-PPI-(Pen)+IP-NH2 (peptide)
peptide: [Sar][Orn][Orn][Orn]ICSRS[tBuAla]PPI[Pen]IP-NH2
modifications: disulfide 6-14; N-terminus assumed
SMILES: CC[C@H](C)[C@H](NC(=O)[C@H](CCCN)NC(=O)[C@H](CCCN)NC(=O)[C@H](CCCN)NC(=O)CNC)C(=O)N[C@H]1CSSC(C)(C)[C@@H](C(=O)N[C@H](C(=O)N2CCC[C@H]2C(N)=O)[C@@H](C)CC)NC(=O)[C@H]([C@@H](C)CC)NC(=O)[C@@H]2CCCN2C(=O)[C@@H]2CCCN2C(=O)[C@H](CC(C)(C)C)NC(=O)[C@H](CO)NC(=O)[C@H](CCCNC(=N)N)NC(=O)[C@H](CO)NC1=O
In the case of B1, in test [1], the “human MASP1 IC50” value was 40 nM. Also, the “human MASP2 IC50” value in test [2] is 550 nM.

B2: Example 378: PPIC+SRS-((tBu)A)-PPI-(Pen)+IP-NH2 (peptide)
peptide: PPICSRS[tBuAla]PPI[Pen]IP-NH2
modifications: disulfide 4-12; N-terminus assumed
SMILES: CC[C@H](C)[C@H](NC(=O)[C@@H]1CCCN1C(=O)[C@@H]1CCCN1)C(=O)N[C@H]1CSSC(C)(C)[C@@H](C(=O)N[C@H](C(=O)N2CCC[C@H]2C(N)=O)[C@@H](C)CC)NC(=O)[C@H]([C@@H](C)CC)NC(=O)[C@@H]2CCCN2C(=O)[C@@H]2CCCN2C(=O)[C@H](CC(C)(C)C)NC(=O)[C@H](CO)NC(=O)[C@H](CCCNC(=N)N)NC(=O)[C@H](CO)NC1=O
As for B2, the “human MASP1 IC50” value in test [1] is 38 nM. The “human MASP2 IC50” value in test [2] stood at 1100 nM.

B3: Example 383: (Ahx)-IC+SRSLP-(Oic)-IC+I-OH (peptide)
peptide: [Ahx]ICSRSLP[Oic]ICI-OH
modifications: disulfide 3-11; N-terminus assumed
SMILES: CC[C@H](C)[C@H](NC(=O)[C@@H]1CSSC[C@H](NC(=O)[C@@H](NC(=O)CCCCCN)[C@@H](C)CC)C(=O)N[C@@H](CO)C(=O)N[C@@H](CCCNC(=N)N)C(=O)N[C@@H](CO)C(=O)N[C@@H](CC(C)C)C(=O)N2CCC[C@H]2C(=O)N2[C@@H](C[C@@H]3CCCC[C@@H]32)C(=O)N[C@@H]([C@@H](C)CC)C(=O)N1)C(=O)O
For the molecule B3, the “human MASP1 IC50” value in test [1] came to 40 nM. Moreover, the “human MASP2 IC50” value in test [2] was 800 nM.

B4: Example 386: ((N-Me)G)-IC+SRSLPPIC+IpD-OH (peptide)
peptide: [Sar]ICSRSLPPICI[dP]D-OH
modifications: disulfide 3-11; N-terminus assumed
SMILES: CC[C@H](C)[C@H](NC(=O)CNC)C(=O)N[C@H]1CSSC[C@@H](C(=O)N[C@H](C(=O)N2CCC[C@@H]2C(=O)N[C@@H](CC(=O)O)C(=O)O)[C@@H](C)CC)NC(=O)[C@H]([C@@H](C)CC)NC(=O)[C@@H]2CCCN2C(=O)[C@@H]2CCCN2C(=O)[C@H](CC(C)C)NC(=O)[C@H](CO)NC(=O)[C@H](CCCNC(=N)N)NC(=O)[C@H](CO)NC1=O
For B4, in test [1], the “human MASP1 IC50” value came out at 43 nM. For the same molecule, the “human MASP2 IC50” value in test [2] is 750 nM.
With AICSRSLPPIC[2‑Methyl‑D‑alloisoleucine]PD-NH2 (disulfide 3-11) [Example 374: AIC+SRSLPPIC+(2-Methyl-D-alloisoleucine)-PD-NH2], the “human MASP1 IC50” value in test [1] was found to be 37 nM. Moreover, the “human MASP2 IC50” value in test [2] stood at 14000 nM.
The matching figures for [Sar]ICSRSLP[Oic]I[Pen]IP-NH2 (disulfide 3-11; also: citrate salt) [Example 376: ((N-Me)G)-IC+SRSLP-(Oic)-I-(Pen)+IP-NH2 (Citrate)]: 1.1 nM and 35 nM.
Take GICSRS[(Trifluoro)l/L]PPICIPD-OH (disulfide 3-11) [Example 384: GIC+SRS-((Trifluoro)l/L)-PPIC+IPD-OH]: the “human MASP1 IC50” value in test [1] is 42 nM. Also, in test [2], the “human MASP2 IC50” value worked out at 260 nM.

B5: Example 380: GIC+SRSL-(Hyp)-PIC+IPD-OH (peptide)
peptide: GICSRSL[Hyp]PICIPD-OH
modifications: disulfide 3-11; N-terminus assumed
SMILES: CC[C@H](C)[C@H](NC(=O)CN)C(=O)N[C@H]1CSSC[C@@H](C(=O)N[C@H](C(=O)N2CCC[C@H]2C(=O)N[C@@H](CC(=O)O)C(=O)O)[C@@H](C)CC)NC(=O)[C@H]([C@@H](C)CC)NC(=O)[C@@H]2CCCN2C(=O)[C@@H]2C[C@@H](O)CN2C(=O)[C@H](CC(C)C)NC(=O)[C@H](CO)NC(=O)[C@H](CCCNC(=N)N)NC(=O)[C@H](CO)NC1=O
As to B5, in test [1], the “human MASP1 IC50” value came out at 40 nM. The “human MASP2 IC50” value in test [2] amounted to 810 nM.

B6: Example 377: IC+SRSLP-(Oic)-I-(Pen)+IPQ-NH2 (peptide)
peptide: ICSRSLP[Oic]I[Pen]IPQ-NH2
modifications: disulfide 2-10; N-terminus assumed
SMILES: CC[C@H](C)[C@H](N)C(=O)N[C@H]1CSSC(C)(C)[C@@H](C(=O)N[C@H](C(=O)N2CCC[C@H]2C(=O)N[C@@H](CCC(N)=O)C(N)=O)[C@@H](C)CC)NC(=O)[C@H]([C@@H](C)CC)NC(=O)[C@@H]2C[C@@H]3CCCC[C@@H]3N2C(=O)[C@@H]2CCCN2C(=O)[C@H](CC(C)C)NC(=O)[C@H](CO)NC(=O)[C@H](CCCNC(=N)N)NC(=O)[C@H](CO)NC1=O
Turning to B6, the “human MASP1 IC50” value in test [1] is 37 nM. For the same molecule, in test [2], the “human MASP2 IC50” value came out at 810 nM.

B7: Example 371: PPIC+SRS-((tBu)A)-PPI-(Pen)+I-NH2 (peptide)
peptide: PPICSRS[tBuAla]PPI[Pen]I-NH2
modifications: disulfide 4-12; N-terminus assumed
SMILES: CC[C@H](C)[C@H](NC(=O)[C@H]1NC(=O)[C@H]([C@@H](C)CC)NC(=O)[C@@H]2CCCN2C(=O)[C@@H]2CCCN2C(=O)[C@H](CC(C)(C)C)NC(=O)[C@H](CO)NC(=O)[C@H](CCCNC(=N)N)NC(=O)[C@H](CO)NC(=O)[C@@H](NC(=O)[C@@H](NC(=O)[C@@H]2CCCN2C(=O)[C@@H]2CCCN2)[C@@H](C)CC)CSSC1(C)C)C(N)=O
B7: the “human MASP1 IC50” value in test [1] turned out to be 36 nM. Also, the “human MASP2 IC50” value in test [2] was 810 nM.

B8: Example 373: (Aib)-IC+SRSLPPIC+IPD-NH2 (peptide)
peptide: [Aib]ICSRSLPPICIPD-NH2
modifications: disulfide 3-11; N-terminus assumed
SMILES: CC[C@H](C)[C@@H]1NC(=O)[C@@H]2CCCN2C(=O)[C@@H]2CCCN2C(=O)[C@H](CC(C)C)NC(=O)[C@H](CO)NC(=O)[C@H](CCCNC(=N)N)NC(=O)[C@H](CO)NC(=O)[C@@H](NC(=O)[C@@H](NC(=O)C(C)(C)N)[C@@H](C)CC)CSSC[C@@H](C(=O)N[C@H](C(=O)N2CCC[C@H]2C(=O)N[C@@H](CC(=O)O)C(N)=O)[C@@H](C)CC)NC1=O
In the case of B8, the “human MASP1 IC50” value in test [1] amounted to 37 nM. Besides, in test [2], the “human MASP2 IC50” value stood at 450 nM.

B9: Example 382: (Cyclobutylacetic)-IC+SRS-((tBu)A)-PPI-((N-Me)C)+I-NH2 (peptide)
peptide: Cyclobutylacetic-ICSRS[tBuAla]PPI[NMeC]I-NH2
modifications: disulfide 2-10
SMILES: CC[C@H](C)[C@H](NC(=O)[C@@H]1CSSC[C@H](NC(=O)[C@@H](NC(=O)CC2CCC2)[C@@H](C)CC)C(=O)N[C@@H](CO)C(=O)N[C@@H](CCCNC(=N)N)C(=O)N[C@@H](CO)C(=O)N[C@@H](CC(C)(C)C)C(=O)N2CCC[C@H]2C(=O)N2CCC[C@H]2C(=O)N[C@@H]([C@@H](C)CC)C(=O)N1C)C(N)=O
B9: in test [1], the “human MASP1 IC50” value came to 40 nM. For the same molecule, the “human MASP2 IC50” value in test [2] came out at 41 nM.

B10: Example 369: IC+SRSLP-(Oic)-I-(Pen)+IPE-OH (peptide)
peptide: ICSRSLP[Oic]I[Pen]IPE-OH
modifications: disulfide 2-10; N-terminus assumed
SMILES: CC[C@H](C)[C@H](N)C(=O)N[C@H]1CSSC(C)(C)[C@@H](C(=O)N[C@H](C(=O)N2CCC[C@H]2C(=O)N[C@@H](CCC(=O)O)C(=O)O)[C@@H](C)CC)NC(=O)[C@H]([C@@H](C)CC)NC(=O)[C@@H]2C[C@@H]3CCCC[C@@H]3N2C(=O)[C@@H]2CCCN2C(=O)[C@H](CC(C)C)NC(=O)[C@H](CO)NC(=O)[C@H](CCCNC(=N)N)NC(=O)[C@H](CO)NC1=O
Turning to B10, the “human MASP1 IC50” value in test [1] was 35 nM. In addition, in test [2], the “human MASP2 IC50” value was 420 nM.

B11: Example 379: ((N-Me)I)-C+SRS-((tBu)A)-PPI-(Pen)+IP-NH2 (peptide)
peptide: [NMeI]CSRS[tBuAla]PPI[Pen]IP-NH2
modifications: disulfide 2-10; N-terminus assumed
SMILES: CC[C@H](C)[C@H](NC)C(=O)N[C@H]1CSSC(C)(C)[C@@H](C(=O)N[C@H](C(=O)N2CCC[C@H]2C(N)=O)[C@@H](C)CC)NC(=O)[C@H]([C@@H](C)CC)NC(=O)[C@@H]2CCCN2C(=O)[C@@H]2CCCN2C(=O)[C@H](CC(C)(C)C)NC(=O)[C@H](CO)NC(=O)[C@H](CCCNC(=N)N)NC(=O)[C@H](CO)NC1=O
In the case of B11, in test [1], the “human MASP1 IC50” value was 39 nM. In test [2], the “human MASP2 IC50” value was 360 nM.

B12: Example 370: fIC+SRSLP-(Oic)-I-(Pen)+IP-NH2 (peptide)
peptide: [dF]ICSRSLP[Oic]I[Pen]IP-NH2
modifications: disulfide 3-11; N-terminus assumed
SMILES: CC[C@H](C)[C@H](NC(=O)[C@H](N)Cc1ccccc1)C(=O)N[C@H]1CSSC(C)(C)[C@@H](C(=O)N[C@H](C(=O)N2CCC[C@H]2C(N)=O)[C@@H](C)CC)NC(=O)[C@H]([C@@H](C)CC)NC(=O)[C@@H]2C[C@@H]3CCCC[C@@H]3N2C(=O)[C@@H]2CCCN2C(=O)[C@H](CC(C)C)NC(=O)[C@H](CO)NC(=O)[C@H](CCCNC(=N)N)NC(=O)[C@H](CO)NC1=O
Consider B12, for which the “human MASP1 IC50” value in test [1] came out at 35 nM. Besides, in test [2], the “human MASP2 IC50” value was determined as 93.5 nM.

B13: Example 372: IC+SRSLP-(Oic)-I-(Pen)+IPE-NH2 (peptide)
peptide: ICSRSLP[Oic]I[Pen]IPE-NH2
modifications: disulfide 2-10; N-terminus assumed
SMILES: CC[C@H](C)[C@H](N)C(=O)N[C@H]1CSSC(C)(C)[C@@H](C(=O)N[C@H](C(=O)N2CCC[C@H]2C(=O)N[C@@H](CCC(=O)O)C(N)=O)[C@@H](C)CC)NC(=O)[C@H]([C@@H](C)CC)NC(=O)[C@@H]2C[C@@H]3CCCC[C@@H]3N2C(=O)[C@@H]2CCCN2C(=O)[C@H](CC(C)C)NC(=O)[C@H](CO)NC(=O)[C@H](CCCNC(=N)N)NC(=O)[C@H](CO)NC1=O
Turning to B13, the “human MASP1 IC50” value in test [1] came to 36 nM. The “human MASP2 IC50” value in test [2] was found to be 660 nM.

The values are drawn from patent publication US20210246166A1 (Bayer, published 2021).
